The target of assay [1] is T1, Norwalk virus-like particles (genogroup I) (Norwalk virus (genogroup I Norovirus), UniProt Q83884 1-530).
T1 construct: also called NV; NVLPs
T1 sequence: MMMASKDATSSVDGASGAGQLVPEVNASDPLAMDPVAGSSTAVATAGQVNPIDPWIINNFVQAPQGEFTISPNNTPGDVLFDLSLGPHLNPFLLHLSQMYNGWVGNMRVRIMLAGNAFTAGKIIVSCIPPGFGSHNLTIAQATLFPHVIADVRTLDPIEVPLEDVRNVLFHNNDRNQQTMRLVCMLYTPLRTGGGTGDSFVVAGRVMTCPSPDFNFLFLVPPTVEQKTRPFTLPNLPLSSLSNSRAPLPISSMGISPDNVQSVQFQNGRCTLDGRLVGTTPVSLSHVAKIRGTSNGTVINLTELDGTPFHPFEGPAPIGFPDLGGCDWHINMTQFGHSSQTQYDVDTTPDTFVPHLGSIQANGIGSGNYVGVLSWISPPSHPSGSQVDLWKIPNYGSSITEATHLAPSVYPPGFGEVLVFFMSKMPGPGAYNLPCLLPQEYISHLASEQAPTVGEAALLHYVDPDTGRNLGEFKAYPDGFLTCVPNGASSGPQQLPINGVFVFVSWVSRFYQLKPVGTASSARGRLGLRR
Description: SPR (BIAcore), VLPs immobilized, dendrimer injected.

In assay [2] the target is T2, Houston virus-like particles (genogroup II) (Norovirus genogroup II, Houston strain).
T2 construct: Recombinant VLP; also called HOV
Described as above.

Assay [3] has as its target T3, Snow Mountain virus-like particles (genogroup II) (Norovirus genogroup II, Snow Mountain …).
T3 construct: Recombinant VLP; also called SMV
The assay is described as above.

Assay [4] concerns the target T4, Grimsby virus-like particles (genogroup II) (Norovirus genogroup II, Grimsby strain).
T4 construct: Recombinant VLP; also called GRV
The assay is described as above.

Assay [5] concerns the target T1, Norwalk virus-like particles (genogroup …). Description: ELISA: dendrimer coated at 0.4 mg/mL (32 µM), VLPs added at 2 µg/mL, detection with MAb3912 and goat anti-mouse-HRP, ABTS at 405 nm. (In general: In an ELISA, binding on a coated surface is turned into a signal by an enzyme label.)
For assay [6] the target is unchanged. Put plainly: ELISA: dendrimer coated, VLPs added, detection with MAb3912 and goat anti-mouse-HRP, ABTS at 405 nm.

Ends that are not written are not given here.

With AHFQTHTVPLSL (also: octovalent MAP dendrimer, eight copies on branching lysine core, Octovalent peptide dendrimer (MAP)) [AHFQTHTVPLSL8 (the octovalent dendrimer of SEQ ID NO: 2)], the equilibrium average response stood at 6750 RU in assay [1], 6710 RU in assay [2], 6430 RU in assay [3] and 6380 RU in assay [4].
Consider RHFQTHTVPLSL (also: octovalent MAP dendrimer, eight copies on branching lysine core, Octovalent peptide dendrimer (MAP)) [RHFQTHTVPLSL8 (the octovalent dendrimer of SEQ ID NO: 1)], for which, in assay [5], the binding result was “binds”.

B1: SREPQYGGPAAD8 (the octovalent dendrimer of SEQ ID NO: 5) (peptide)
peptide branch of the dendrimer: SREPQYGGPAAD
notes: also called nonspecific octovalent dendrimer
B1: the binding result in assay [6] is on record as “no binding”.

(Values after patent publication US20110020786A1 (BAYLOR COLLEGE OF MEDICINE, published 2011).)
